Test results taken from US20150100046A1, “INTRAOCULAR DRUG DELIVERY DEVICE AND ASSOCIATED METHODS” (priority 2013, published 2015).

Assay: Ocular tissue drug concentration by ELISA after implantation of loaded intraocular device
Format: in vivo, New Zealand white rabbits
Conditions: intraocular device loaded with Avastin implanted in lens capsule after lens extraction, 1 week post implantation
Description: Three intraocular devices were implanted into eyes of New Zealand white rabbits under general anesthesia after lens extraction (phacoemulsification technique). Two of the devices were loaded with Avastin® (bevacizumab) and one was loaded with the contrast agent gadolinium-labeled albumin (Galbumin™) as a control. Proper intraocular device position was verified by MRI as well as clinical examination.
The rabbits were sacrificed and the eyes are removed and assayed after 1 week post implantation. Bevacizumab (Avastin®) was detected by ELISA in the retina and vitreous at concentrations of 24-48 mcg/mL, and was not present in the control rabbit eye.

For bevacizumab [Bevacizumab (Avastin®)], which “concentration detected by ELISA in the retina and vitreous” value is on record?
The value was 24000 to 48000 ng/mL.
